# Measured values reported in the supplement of paper PMC9732359.
# ± gives the uncertainty stated by the source.
# Assay: protein stability index of a GFP-peptide fusion (yeast GPS) (PSI 1-4); higher = more stable; sorted into four equal gates, so the index is relative within each strain
# Settings: ubr1∆
# Outline: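 Sequencing reads from sorted gates were used to score each peptide. The library consisted of tiled 17-residue yeast protein peptides fused downstream of GFP on a Cherry-expressing plasmid, pooled and carried in yeast. Mid-log cultures in leucine-free medium were split into four equal gates by GFP/Cherry ratio, and each gate's plasmids were PCR-amplified and Illumina-sequenced. The protein stability index adds up, over all gates, the read frequency multiplied by the gate number.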
row,Sequence,protein stability index
1,QGGAMNKKSEQALDISK [SRP72],3.07 ± 0.063
2,QGLAMVEKYAPDVVRSL [RRP42],2.72 ± 0.13
3,QGMEGTVDLALFGSPPF [YMR129W/POM152],3.21 ± 0.047
4,QHDSSANEDEEEQLDAL [CSN12],3 ± 0.17
5,QHHVTDADKLSFNCENF [YML031W/NDC1],2.2 ± 0.058
6,QIANEFNTQQGIKKHSL [YDL116W/NUP84],3.11 ± 0.038
7,QIDYKLESFQAVYNKLT [RPS7A],2.85 ± 0.037
8,QIGQVPLAPAPINLPPQ [SNF5],2.5 ± 0.079
9,QIISNAHNKPSLFSKIK [YAR002W/NUP60],2.94 ± 0.058
10,QIKEIKEVIELPVKHPE [RPT6],3.2 ± 0.075
11,QILIFAADTSIVEQDKS [YJL039C/NUP192],2.54 ± 0.25
12,QIMQLKKICNHPFVFEE [SNF2],2.55 ± 0.059
13,QITIEPGVDVEVVVASN [RPS20],2.51 ± 0.066
14,QKKILSIRLKVPPTIAQ [RPL8A],1.69 ± 0.029
15,QKKNFLFKPLNKTLTLD [ARP7],1.89 ± 0.26
16,QKKRVVDPFTRKEWFDI [RPS1A],3.13 ± 0.13
17,QKLDILVAKLKKVKSAS [SMC4],2.73 ± 0.045
18,QKLHKVKKASGEIVSIN [RPL20A],2.8 ± 0.056
19,QKNYADPEKDSINATAL [SIN4],1.59 ± 0.032
20,QKSSKENIENEEYVINL [ECM29],3.02 ± 0.082
21,QKTVFDELCKLVTCEGS [SRP54],1.14 ± 0.086
22,QKVFVRSRNGGATKIVR [DIS3],2.45 ± 0.21
23,QLDSDANKLSKSHSTVS [ISW2],3.06 ± 0.074
24,QLEGFESRKAFFLGYMI [RPB2],2.49 ± 0.045
25,QLEYKRGEIREIEQVCK [MED7],1.45 ± 0.07
26,QLGPQTPAFNTAILQRQ [ECM29],1.67 ± 0.21

row,Sequence,protein stability index
1,QLIKVAVHNGDRKHVAA [RPL9B],2.65 ± 0.027
2,QLILSDVDPEFYLKYVD [RET1],2.92 ± 0.12
3,QLKFEGFALNSDIVFIH [BRR2],1.81 ± 0.036
4,QLKTGLAAIVSTVIEEF [YGL172W/NUP49],3.04 ± 0.076
5,QLKWAQNTIDDTEMKMK [YIL149C/MLP2],2.74 ± 0.059
6,QLNCIDTQFTKLLDDNP [SRB8],2.9 ± 0.048
7,QLNKVVDQLFEKASVLY [RPN6],2.43 ± 0.055
8,QLPSKFTCSCNSLTVDG [RPN14],2.17 ± 0.036
9,QLVEITEQIKMRILSND [SRB8],2.48 ± 0.034
10,QLYEDLCRYEDTLSKLV [MED4],3.25 ± 0.09
11,QMDGFDNLGQTKIIMAT [RPT4],3.48 ± 0.098
12,QMPLNSNGGNNMLPQRQ [SNF2],2.54 ± 0.043
13,QNCWSLINDSYINDVHL [SSN8],3.23 ± 0.055
14,QNDTPMFKLGNFESPVL [YLR018C/POM34],2.29 ± 0.034
15,QNKKNLKWVAVVPDLGH [SSN2],3.02 ± 0.1
16,QNNFHVLIDLLNWFRTT [RGR1],2.47 ± 0.09
17,QNNTTKFHSELQYLDKH [RPN12],3.17 ± 0.061
18,QNPKLFQTIFSKQDLIH [SIN4],2.02 ± 0.051
19,QNPLPTRFEVELEFIQS [SOH1],2.83 ± 0.078
20,QNVTSETHSKKRKKEAN [ITC1],3.08 ± 0.073
21,QPGYADLEHKEDCVEEF [QCR6],2.68 ± 0.044
22,QPKAPRAPKVIHGQDFQ [ISW2],3.19 ± 0.058
23,QPQETEEHHEEEPSRVD [RPT4],3.22 ± 0.086
24,QPSKVSSNVQQPQQQLG [RTT102],3.03 ± 0.1
25,QPTNFTTKRLWSEITES [MCD1],2.04 ± 0.09
26,QPYEDRPFEGLFVISTE [RRP45],3.05 ± 0.038

row,Sequence,protein stability index
1,QQIWKSPNFKNYLKYLE [SOH1],2.22 ± 0.062
2,QQLNKQRQDFERVRLRP [SNF6],2.79 ± 0.045
3,QQMIITRLKSLLKPFHV [SIR3],1.99 ± 0.035
4,QQMQPPNSSANNNPLQQ [GAL11],2.95 ± 0.048
5,QQQLRNQIQRQQQQQFR [SNF5],1.55 ± 0.061
6,QQQQMQQQQQQQQQQQN [SSN2],2.83 ± 0.1
7,QQQQQQQQGQIPQSQQV [SNF5],2.511 ± 0.02
8,QQVPPLPDELTLSYDDI [DLS1],2.74 ± 0.039
9,QQWGNDFYKRDPRIAPL [FAS2],2 ± 0.05
10,QRQDFERVRLRPEQLSN [SNF6],2.25 ± 0.034
11,QSEDLSHAVEFFMSERS [YML103C/NUP188],3.18 ± 0.059
12,QSKIDLTKKKNEEINKK [SEM1],3.21 ± 0.076
13,QSNYGIYSSDAQGDPNL [NUT1],3.06 ± 0.063
14,QSYFSQLKFEGFALNSD [BRR2],1.43 ± 0.04
15,QTATQLLERGRLRKRVT [SMC2],2.42 ± 0.078
16,QTEIKDIILGQNIKAPS [PRP8],2.78 ± 0.07
17,QTQAIAQQQQLSNYPQQ [YGR119C/NUP57],2.97 ± 0.046
18,QTRWGLPSGRQDGVLLV [FAS2],1.32 ± 0.15
19,QTVSNKEDAKATMENIQ [SRP54],2.99 ± 0.056
20,QVARTNLDGTKAVKLRK [ROX3],3.15 ± 0.058
21,QVGERIKQTFKNDLFVI [RPO21],2.49 ± 0.064
22,QVGLNFELSFTGAPPYY [YMR129W/POM152],1.93 ± 0.031
23,QVNQLQRILEVLGTPDQ [SSN3],1.51 ± 0.038
24,QVSNFAPQVYIITKNEN [GAL11],1.67 ± 0.084
25,QVVLGGTSKYLINGHRA [SMC2],2.96 ± 0.065
26,QWSATWIAMRREKRDRT [PRP8],2.73 ± 0.095

row,Sequence,protein stability index
1,QYIRTLVSEARTLWPEF [SSN8],2.42 ± 0.046
2,RAANQGALPPDLSLIVK [CYT1],2.87 ± 0.074
3,RAIPFRRFNSSIGRTAQ [RPL17A],2.68 ± 0.06
4,RAIRSEKYGKQVYDLLK [BRR2],3.26 ± 0.13
5,RANLRKYREGQVLFQGL [POP1],2.96 ± 0.063
6,RAPIYHSKFRSSSGNTW [YML031W/NDC1],2.59 ± 0.06
7,RARGPMQVLTRQPVEGR [RPB2],2.98 ± 0.24
8,RASKALIERYYPKLTLD [RPS17A],2.37 ± 0.25
9,RAVLTPLITRHCYPRQL [RRP46],2.39 ± 0.033
10,RCIGDSDNVSFEIQGVP [YMR129W/POM152],3.35 ± 0.06
11,RDDGKRELLVEGYGLRD [RPO31],2.74 ± 0.068
12,RDLILTEYGRKYNVNIS [PRP8],2.28 ± 0.059
13,RDMIMKRNSDKVEYKIV [ITC1],1.31 ± 0.047
14,RDYLVDTLKLRENLHIL [RRP6],3.29 ± 0.084
15,REDIDDPLAKVNVLLQS [BRR2],2.96 ± 0.11
16,REEAIGFIRGSNKFAEV [SMC3],2.67 ± 0.08
17,REIHNEAESQLRAAQQQ [FAS2],2.91 ± 0.053
18,RELFVMAREHAPSIIFM [RPT6],1.71 ± 0.078
19,RELTKNILWRIADKTTY [SIR4],3.02 ± 0.05
20,RENALYDYYALQLLPLQ [SNF2],2.77 ± 0.042
21,RENLHILNEVFTNPSIV [RRP6],2.25 ± 0.053
22,RENVKSKDEPVSKAVES [SIR4],3.31 ± 0.18
23,REVENSVSLLNSDIANL [SMC1],2.86 ± 0.072
24,RFDAQTGSDREVQRILI [RPT3],3.4 ± 0.16
25,RFKMERAGVTHVLSRLS [RET1],1.3 ± 0.23
26,RFNAKVSMVKRAIDSLI [CDC53],2 ± 0.042
